The text below walks through data of US20260234255A1 (Genmab, published 2026).

The target of test [1] is T1, human CD30 (human, UniProt P28908 19-595).
T1 construct: The same molecule is used for CD30 on HL/ALCL/NHL cell lines; also called huCD30; TNFRSF8
T1 sequence: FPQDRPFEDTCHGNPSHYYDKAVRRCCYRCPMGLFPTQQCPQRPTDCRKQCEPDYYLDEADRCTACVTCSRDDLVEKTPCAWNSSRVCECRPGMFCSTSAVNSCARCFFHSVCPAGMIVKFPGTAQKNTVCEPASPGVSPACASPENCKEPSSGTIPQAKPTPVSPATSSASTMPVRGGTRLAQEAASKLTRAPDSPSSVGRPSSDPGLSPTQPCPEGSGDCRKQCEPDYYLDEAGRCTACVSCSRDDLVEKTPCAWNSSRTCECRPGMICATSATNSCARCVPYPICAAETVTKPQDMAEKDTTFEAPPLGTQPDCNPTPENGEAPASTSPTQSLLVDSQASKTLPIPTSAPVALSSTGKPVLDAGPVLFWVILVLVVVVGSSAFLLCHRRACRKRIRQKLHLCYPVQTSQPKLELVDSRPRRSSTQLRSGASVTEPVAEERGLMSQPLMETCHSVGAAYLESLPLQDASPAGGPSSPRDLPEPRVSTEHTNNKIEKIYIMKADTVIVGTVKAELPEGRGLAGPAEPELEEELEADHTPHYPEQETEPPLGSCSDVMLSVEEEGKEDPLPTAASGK
The experiment in a line: flow cytometry, HDLM-2 cells, experiment N = 2. (In general: A flow cytometer gives signals particle by particle.)

Test [2] addresses T2, rhesus monkey (Macaca mulatta) CD30 (rhesus monkey, UniProt P28908 19-595 (human entry)).
T2 construct: also called mmCD30
T2 chain: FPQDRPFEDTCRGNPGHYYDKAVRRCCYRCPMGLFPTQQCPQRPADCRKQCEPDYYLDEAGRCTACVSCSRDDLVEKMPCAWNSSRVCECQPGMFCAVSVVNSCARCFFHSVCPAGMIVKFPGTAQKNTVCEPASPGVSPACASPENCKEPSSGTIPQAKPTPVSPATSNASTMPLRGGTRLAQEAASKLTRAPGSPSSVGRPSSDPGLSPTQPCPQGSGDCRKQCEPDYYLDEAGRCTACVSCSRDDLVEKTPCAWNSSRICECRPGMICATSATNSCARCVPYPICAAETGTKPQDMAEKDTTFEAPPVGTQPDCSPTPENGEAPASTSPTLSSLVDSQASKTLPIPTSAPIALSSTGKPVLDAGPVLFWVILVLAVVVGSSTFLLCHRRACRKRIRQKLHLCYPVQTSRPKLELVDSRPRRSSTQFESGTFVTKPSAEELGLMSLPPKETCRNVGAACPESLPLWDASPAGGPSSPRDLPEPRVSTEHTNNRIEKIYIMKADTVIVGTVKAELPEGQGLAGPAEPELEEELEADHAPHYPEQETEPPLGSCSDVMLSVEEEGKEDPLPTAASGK
The experiment in a line: flow cytometry, Expi293F cells transfected with rhesus monkey CD30. The procedure: Cells (3×10⁴ cells/well) were incubated in polystyrene 96-well round-bottom plates (Greiner bio-one, cat. no. 650180) with serial dilutions of antibodies (ranging from 0.005 to 10 μg/mL in 3-fold dilution steps) in 100 μL staining buffer at 4° C. for 30 min. Experiments were performed in technical duplicate. After washing twice in staining buffer, cells were incubated in 50 μL secondary antibody at 4° C. for 30 min. As a secondary antibody, R-PE-conjugated goat-anti-human IgG (Jackson ImmunoResearch, UK; cat. no. 109⁻¹¹⁶-098) diluted 1:400 in staining buffer was used. Cells were washed twice in staining buffer, resuspended in 30 μL staining buffer containing 0.4% EDTA and analyzed on an iQue Screener (Intellicyt Corporation, USA). Binding curves were analyzed using non-linear regression (sigmoidal dose-response with variable slope) using GraphPad Prism V9.0.0 software (GraphPad Software, San Diego, CA, USA).

Test [3] concerns the target T1, human CD30. The experiment in a line: flow cytometry, SUP-M2 cells (ALCL), average of 3 tests. The procedure: (§1) Cells (3×10⁴ cells/well) were incubated in polystyrene 96-well round-bottom plates (Greiner bio-one, cat. no. 650180) with serial dilutions of antibodies (range 0.0046 to 10 μg/mL in 3-fold dilution steps) in 50 μL staining buffer at 4° C. for 30 min. After washing twice in staining buffer, cells were incubated with 50 μL secondary antibody at 4° C. for 30 min. […] Next, cells were washed twice in staining buffer, resuspended in 100 μL staining buffer supplemented with TO-PRO-3 iodide (Thermo Fisher Scientific; cat. no. T3605; 1:8000 dilution) and analyzed on a FACSCelesta flow cytometer (BD Biosciences, USA). Live cells were gated based on FSC/SSC and absence of TOPRO-3 staining. Binding curves were analyzed by non-linear regression of log-transformed data (sigmoidal dose-response with variable slope, four parameters) using GraphPad Prism V7.02 software (GraphPad Software, San Diego, CA, USA).

Test [4] addresses T1, human CD30. The experiment in a line: flow cytometry, DL-40 cells (ALCL), range of 3 tests. The method, then:
as §1

In test [5] the target is T1, human CD30. The test can be described thus: flow cytometry, L-540 cells (HL), range of 3 tests. The procedure: as §1
In test [6] the target is T1, human CD30. The experiment in a line: flow cytometry, KARPAS-299 cells (ALCL), range of 2 tests. The method, then:
as §1

For test [7], the target named is T1, human CD30. The test can be described thus: flow cytometry, HEK293 cells transfected with human CD30. The procedure: Cells (3×10⁴ cells/well) were incubated in polystyrene 96-well round-bottom plates (Thermo Scientific, cat. no. 163320) with serial dilutions of antibodies (ranging from 0.0002 to 50 μg/mL in 4-fold dilution steps) in 50 μL staining buffer at 4° C. for 30 min. Experiments were performed in technical duplicate. After washing twice in staining buffer, cells were incubated in 50 μL secondary antibody at 4° C. for 30 min. As a secondary antibody, R-PE-conjugated goat-anti-human IgG (Jackson ImmunoResearch, UK; cat. no. 109⁻¹¹⁶-098) diluted 1:200 in staining buffer was used. Cells were washed twice in staining buffer, resuspended in 30 μL staining buffer containing 0.4% EDTA and the ToPro-3 viability marker (Invitrogen, cat. no. T3605) diluted 1:10,000. Cells were analyzed on an iQue Screener (Intellicyt Corporation, USA). Binding curves were analyzed using non-linear regression (sigmoidal dose-response with variable slope) using GraphPad Prism V9.0.0 software (GraphPad Software, San Diego, CA, USA).

For test [8], the target named is T1, human CD30. The experiment in a line: flow cytometry, SUP-M2 cells (ALCL), range of 3 tests. The method, then: as §1

As usually defined, the EC50 is the concentration at which the effect is half-maximal. A word on the EC50 (read off the curve): it is the concentration needed to bring the measured effect to its halfway point.

Where a chain is given by its changes, count along the chain named.

B1: bsG1-huCD3-FEALxCD30-MDX060-FEAR (bispecific antibody, human IgG1, kappa, lambda)
heavy 1: not shown
light 1: not shown
heavy 2: QVQLQQWGAGLLKPSETLSLTCAVYGGSFSAYYWSWIRQPPGKGLEWIGDINHGGGTNYNPSLKSRVTISVDTSKNQFSLKLNSVTAADTAVYYCASLTAYWGQGSLVTVSSASTKGPSVFPLAPSSKSTSGGTAALGCLVKDYFPEPVTVSWNSGALTSGVHTFPAVLQSSGLYSLSSVVTVPSSSLGTQTYICNVNHKPSNTKVDKRVEPKSCDKTHTCPPCPAPEFEGGPSVFLFPPKPKDTLMISRTPEVTCVVVAVSHEDPEVKFNWYVDGVEVHNAKTKPREEQYNSTYRVVSVLTVLHQDWLNGKEYKCKVSNKALPAPIEKTISKAKGQPREPQVYTLPPSREEMTKNQVSLTCLVKGFYPSDIAVEWESNGQPENNYKTTPPVLDSDGSFFLYSRLTVDKSRWQQGNVFSCSVMHEALHNHYTQKSLSLSPG
light 2: DIQMTQSPTSLSASVGDRVTITCRASQGISSWLTWYQQKPEKAPKSLIYAASSLQSGVPSRFSGSGSGTDFTLTISSLQPEDFATYYCQQYDSYPITFGQGTRLEIKRTVAAPSVFIFPPSDEQLKSGTASVVCLLNNFYPREAKVQWKVDNALQSGNSQESVTEQDSKDSTYSLSSTLTLSKADYEKHKVYACEVTHQGLSSPVTKSFNRGEC
notes: also called bsG1-huCD3xCD30-MDX060
In the test with human CD30 [1], B1 registered an EC50 of 0.12 µg/mL. The “EC50 (read off the curve)” value in test [2] is roughly 0.2 µg/mL.

B2: bsG1-huCD3-FEALxCD30-MDX060-FERR (bispecific antibody, human IgG1, kappa, lambda)
heavy 1: not shown
light 1: not shown
heavy 2: B1 heavy 2 with G231R, A260D
light 2: B1 light 2
notes: Bispecific IgG1 made by controlled Fab-arm exchange; also called bsIgG1-huCD3-FEALxCD30-MDX060-FERR; bsG1-huCD3×CD30-MDX060
With B2, the EC50 is 0.167 µg/mL with human CD30 [3]; 0.17 to 0.347 µg/mL in the test with human CD30 [4]; 0.202 to 0.469 µg/mL with human CD30 [5]; 0.134 to 0.269 µg/mL with human CD30 [6]; 0.134 to 0.223 µg/mL with human CD30 [8]. For the same molecule, the half-maximal effective concentration (EC50 (read off the curve)) in the test with human CD30 [7] is roughly 0.1 µg/mL.
